According to US20220267415A1:

Target: recombinant SARS-CoV-2 Receptor Binding Domain (RBD) with a his tag (ATUM, Cat. 65639.1.a) (SARS-CoV-2), P0DTC2
Assay: ELISA on coated RBD-his
Details: remark: other sources report otherwise

Binder	EC50
anti-SARS-CoV2-09 IgG (antibody, V domains shown) VH: QVQLHQWGAGLLKPSETLSRTCAVYGGSFSGYYWTWIRQAPGKGLEWIGEINHGGSTRYNPSLESRVSISVDTSKKQFSLELRSVTAADTAIYYCARGYDTNWYGDGYNWFDPWDRGTLVTVSS VL: QSALTQDPSVSVALGQTVRITCQGDSLRGSFASWYRQKPGQAPVLVIFGINNRPSGVPDRFSGSSSGNTASLTITGAQAEDEADYYCNSRESNSNRILFGGGTKVTVL	2.3 nM
anti-SARS-CoV2-16 IgG (antibody, V domains shown) VH: QVQLHQWGAGLLKPSETLSRTCAVYGGSFSGYYWTWIRQAPGKGLEWIGEINHGGSTRYNPSLESRVSISVDTSKKQFSLELRSVTAADTAIYYCARGYDTNWYGDGYNWFDPWDRGTLVTVSS VL: QAVVTQPPSVSGTPGQRVTISCSGSSSSIGSNTVHWYQHLPGTAPKLLMYNNNERPSGVPARFSGSKSGTSASLVITGLQADDEAEYYCQSYDTGLSGHVFGSGTELTVL	4.2 nM
